Test results from patent US20210380703A1 (RIGEL PHARMACEUTICALS, published 2021).
Positions count from the first letter of the chain named.

B1: 376_C01 (antibody, V domains shown)
VH: EVQLLESGGGLVQPGGSLRLSCAASGFTFDSYSMNWVRQAPGKGLEWVAGINYNGGYTSYADSVKGRFTISRDNSKNTLYLQMNSLRAEDTAVYYCARSANWHDTALDYWGQGTLVTVSS
VL: DIQMTQSPSSLSASVGDRVTITCRASQSILTYLNWYQQKPGKAPKLLIYAATSLASGVPSRFSGSGSGTDFTLTISSLQPEDFATYYCQQSYDNPLTFGGGTKVEIK
notes: VH/VL only
B2: 376_C02 (antibody, V domains shown)
VH: B1 VH with S33G, A49S, G55S
VL: B1 VL with L30V, T31S, L47V, A51V, L54R, N94S
notes: VH/VL only
B3: 376_C06 (antibody, V domains shown)
VH: B1 VH with D30S, S33G, N101T
VL: B1 VL with T31S, L47V, L54R, N94S
notes: VH/VL only
B4: 376_C11 (antibody, V domains shown)
VH: B1 VH with G55S, T58K, N101T, A106H
VL: B1 VL with L47V, L54R
notes: VH/VL only
B5: 376_C12 (antibody, V domains shown)
VH: B1 VH with D30S, S59G
VL: B1 VL with L33V, L54R, N94S
notes: VH/VL only
B6: 376_D05 (antibody, V domains shown)
VH: B1 VH with D30S, A49S, G50N, T58K, S59G
VL: B1 VL with L30V, T31S, L33V, N94T
notes: VH/VL only
B7: 376_D11 (antibody, V domains shown)
VH: B1 VH with D30S, S33G, G50N, S59G
VL: B1 VL with T31S, L47V, L54R, D93N
notes: VH/VL only
B8: 376_E03 (antibody, V domains shown)
VH: B1 VH with D30S, S33G, G50N, S59G
VL: B1 VL with T31S, L33V, L47V, N94L
notes: VH/VL only
B9: 376_E08 (antibody, V domains shown)
VH: B1 VH with D30S, S31D, S33G
VL: B1 VL with L30V, T31S, L33V, L47V, L54R, N94S
notes: VH/VL only
B10: 376_E12 (antibody, V domains shown)
VH: B1 VH with D30S, T58K, N101T, A106H
VL: not shown
notes: VH/VL only
B11: 376_F03 (antibody, V domains shown)
VH: B1 VH with S33G, G50N, S59G
VL: B1 VL with L30I, L33V, L47V, A51T, D93S, N94S
notes: VH/VL only
B12: 376_F12 (antibody, V domains shown)
VH: B1 VH with S31D, T58K, N101T, A106H
VL: not shown
notes: VH/VL only
B13: 376_G08 (antibody, V domains shown)
VH: B1 VH with S33G, G50N
VL: B1 VL with T31S, L33V, L47V, L54R, N94T
notes: VH/VL only

Target: T1, biotinylated goat anti-human kappa light chain
T1 construct: Positive control of the ELISA
Assay: ELISA; positive control
How it was run: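 mAb binding by ELISA; antigens: hu ACVR2A, mu ACVR2A; pos ctrl biotinylated goat anti-hu kappa LC; neg ctrl hu Fc.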
Further: test concentration or dose not given here.

Q: Which optical density does the source give for B1 here?
A: Its optical density is 3.2 OD.

Q: How did the optical density turn out when B2 was run?
A: The optical density was 3.44 OD.

Q: With B3 as the binder, how does the optical density read?
A: Its optical density is 3.43 OD.

Q: With B4 as the binder, how does the optical density read?
A: The optical density was 3.46 OD.

Q: With B5 as the binder, how does the optical density read?
A: The optical density was 3.39 OD.

Q: Which optical density does the source give for B6 here?
A: Its optical density is 3.34 OD.

Q: With B7 as the binder, how does the optical density read?
A: The optical density was 3.43 OD.

Q: B8 was tested. Which optical density did it give?
A: Its optical density is 3.42 OD.

Q: With B9 as the binder, how does the optical density read?
A: Its optical density is 3.47 OD.

Q: Which optical density does the source give for B10 here?
A: Its optical density is 3.42 OD.

Q: B11 was tested. Which optical density did it give?
A: Its optical density is 3.44 OD.

Q: For B12, which optical density is on record?
A: The optical density was 3.44 OD.

Q: Which optical density does the source give for B13 here?
A: Its optical density is 3.47 OD.

Target: mouse ACVR2A (mouse, UniProt P27038 20-135, limits assumed)
Assay: ELISA
How it was run: (§1)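 Monoclonal antibodies were first applied to human or mouse ACVR2A, alongside biotinylated goat anti-human kappa light chain (positive control) and human Fc (negative control); binding was then determined by ELISA.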

Chain of mouse ACVR2A (P27038 20-135 limits assumed): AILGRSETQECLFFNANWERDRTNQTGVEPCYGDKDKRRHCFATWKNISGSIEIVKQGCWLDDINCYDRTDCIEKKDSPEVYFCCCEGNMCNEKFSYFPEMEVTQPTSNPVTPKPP

Q: B1 was tested. Which optical density did it give?
A: The optical density was 3.6 OD.

Q: How did the optical density turn out when B2 was run?
A: Its optical density is 3.53 OD.

Q: With B3 as the binder, how does the optical density read?
A: The optical density was 3.56 OD.

Q: With B4 as the binder, how does the optical density read?
A: Its optical density is 3.63 OD.

Q: How did the optical density turn out when B5 was run?
A: Its optical density is 3.32 OD.

Q: For B6, which optical density is on record?
A: The optical density was 3.71 OD.

Q: B7 was tested. Which optical density did it give?
A: Its optical density is 3.62 OD.

Q: B8 was tested. Which optical density did it give?
A: The optical density was 3.74 OD.

Q: For B9, which optical density is on record?
A: Its optical density is 3.64 OD.

Q: Which optical density does the source give for B10 here?
A: Its optical density is 3.32 OD.

Q: With B11 as the binder, how does the optical density read?
A: Its optical density is 3.47 OD.

Q: With B12 as the binder, how does the optical density read?
A: Its optical density is 3.25 OD.

Q: For B13, which optical density is on record?
A: Its optical density is 3.64 OD.

Target: human ACVR2A (human, UniProt P27037 20-135, limits assumed)
Assay: ELISA
How it was run: as §1

Chain of human ACVR2A (P27037 20-135 limits assumed): as the sequence (P27038 20-135 limits assumed) above, with R20K, I73V counted along it

Q: B1 was tested. Which optical density did it give?
A: The optical density was 3.26 OD.

Q: With B2 as the binder, how does the optical density read?
A: Its optical density is 3.44 OD.

Q: Which optical density does the source give for B3 here?
A: Its optical density is 3.49 OD.

Q: With B4 as the binder, how does the optical density read?
A: The optical density was 3.7 OD.

Q: With B5 as the binder, how does the optical density read?
A: Its optical density is 3.7 OD.

Q: Which optical density does the source give for B6 here?
A: The optical density was 3.6 OD.

Q: With B7 as the binder, how does the optical density read?
A: Its optical density is 3.7 OD.

Q: For B8, which optical density is on record?
A: The optical density was 3.79 OD.

Q: For B9, which optical density is on record?
A: Its optical density is 3.64 OD.

Q: With B10 as the binder, how does the optical density read?
A: The optical density was 3.61 OD.

Q: B11 was tested. Which optical density did it give?
A: Its optical density is 3.29 OD.

Q: For B12, which optical density is on record?
A: The optical density was 3.13 OD.

Q: Which optical density does the source give for B13 here?
A: The optical density was 3.69 OD.
